In patent US20030120051A1 (SUGEN, published 2003):

What was measured:
human c-Src = human c-Src (human, UniProt P12931 2-536); test: immunoprecipitation and immunoblotting of endogenous proteins in IMR-32 cells
[1] = target: endogenous c-Src of rat GH3 cells (rat, UniProt Q9WUD9 2-536, limits assumed); test: immunoprecipitation and immunoblotting of endogenous proteins in GH3 cells

Row | binding result (human c-Src) | binding result [1] | Binder
1 | no binding | – | human CASPR/p190 (receptor, Endogenous in IMR-32 neuroblastoma cells) WGYYGCDEELVGPLYARSLGASSYYSLLTAPRFARLHGISGWSPRIGDPNPWLQIDLMKKHRIRAVATQGSFNSWDWVTRYMLLYGDRVDSWTPFYQRGHNSTFFGNVNESAVVRHDLHFHFTARYIRIVPLAWNPRGKIGLRLGLYGCPYKADILYFDGDDAISYRFPRGVSRSLWDVFAFSFKTEEKDGLLLHAEGAQGDYVTLELEGAHLLLHMSLGSSPIQPRPGHTTVSAGGVLNDQHWHYVRVDRFGRDVNFTLDGYVQRFILNGDFERLNLDTEMFIGGLVGAARKNLAYRHNFRGCIENVIFNRVNIADLAVRRHSRITFEGKVAFRCLDPVPHPINFGGPHNFVQVPGFPRRGRLAVSFRFRTWDLTGLLLFSRLGDGLGHVELTLSEGQVNVSIAQSGRKKLQFAAGYRLNDGFWHEVNFVAQENHAVISIDDVEGAEVRVSYPLLIRTGTSYFFGGCPKPASRWDCHSNQTAFHGCMELLKVDGQLVNLTLVEGRRLGFYAEVLFDTCGITDRCSPNMCEHDGRCYQSWDDFICYCELTGYKGETCHTPLYKESCEAYRLSGKTSGNFTIDPDGSGPLKPFVVYCDIRENRAWTVVRHDRLWTTRVTGSSMERPFLGAIQYWNASWEEVSALANASQHCEQWIEFSCYNSRLLNTAGGYPYSFWIGRNEEQHFYWGGSQPGIQRCACGLDRSCVDPALYCNCDADQPQWRTDKGLLTFVDHLPVTQVVIGDTNRSTSEAQFFLRPLRCYGDRNSWNTISFHTGAALRFPPIRANHSLDVSFYFRTSAPSGVFLENMGGPYCQWRRPYVRVELNTSRDVVFAFDVGNGDENLTVHSDDFEFNDDEWHLVRAEINVKQARLRVDHRPWVLRPMPLQTYIWMEYDQPLYVGSAELKRRPFVGCLRAMRLNGVTLNLEGRANASEGTSPNCTGHCAHPRLPCFHGGRCVERYSYYTCDCDLTAFDGPYCNHDIGGFFEPGTWMRYNLQSALRSAAREFSHMLSRPVPGYEPGYIPGYDTPGYVPGYHGPGYRLPDYPRPGRPVPGYRGPVYNVTGEEVSFSFSTSSAPAVLLYVSSFVRDYMAVLIKDDGTLQLRYQLGTSPYVYQLTTRPVTDGQPHSINITRVYRNLFIQVDYFPLTEQKFSLLVDSQLDSPKALYLGRVMETGVIDPEIQRYNTPGFSGCLSGVRFNNVAPLKTHFRTPRPMTAELAEALRVQGELSESNCGAMPRLVSEVPPELDPWYLPPDFPYYHDEGWVAILLGFLVAFLLLGLVGMLVLFYLQNHRYKGSYHTNEPKAAHEYHPGSKPPLPTSGPAQVPTPTAAPNQAPASAPAPAPTPAPAPGPRDQNLPQILEESRSE
2 | – | no binding | rat CASPR/p190 (receptor, Endogenous in GH3 cells and rat brain, or expressed from pCM190R in COS7 cells; read from membrane lysates; no cleavage site stated; also called Contactin ASsociated PRotein; 190 kDa protein) WGYYGCNEELVGPLYARSLGASSYYGLFTTARFARLHGISGWSPRIGDPNPWLQIDLMKKHRIRAVATQGAFNSWDWVTRYMLLYGDRVDSWTPFYQQGHNATFFGNVNDSAVVRHDLHYHFTARYIRIVPLAWNPRGKIGLRLGIYGCPYTSNILYFDGDDAISYRFQRGASQSLWDVFAFSFKTEEKDGLLLHTEGSQGDYVTLELQGAHLLLHMSLGSSPIQPRPGHTTVSAGGVLNDLSWHYVRVDRYGREANLTLDGYVHRFVLNGDFERLNLENEIFIGGLVGAARKNLAYRHNFRGCIENVIYNRINIAEMAVQRHSRITFEGNVAFRCLDPVPHPINFGGPHNFVQVPGFPRRGRLAVSFRFRTWDLTGLLLFSRLGDGLGHVELMLSEGQVNVSIAQTGRKKLQFAAGYRLNDGFWHEVNFVAQENHAVISIDDVEGAEVRVSYPLLIRTGTSYFFGGCPKPASRWGCHSNQTAFHGCMELLKVDGQLVNLTLVEFRKLGYFAEVLFDTCGITDRCSPNMCEHDGRCYQSWDDFICYCELTGYKGVTCHEPLYKESCEAYRLSGKYSGNYTIDPDGSGPLKPFVVYCDIRENRAWTVVRHDRLWTTRVTGSSMDRPFLGAIQYWNASWEEVSALANASQHCEQWIEFSCYNSRLLNTAGGYPYSFWIGRNEEQHFYWGGSQPGIQRCACGLDQSCIDPALHCNCDADQPQWRTDKGLLTFVDHLPVTQVVIGDTNRSSSEAQFFLRPLRCYGDRNSWNTISFRTGAALRFPPIRANHSLDVSFYFRTSAPSGVFLENMGGPFCQWRRPYVRVELNTSRDVVFAFDIGNGDENLTVHSDDFEFNDDEWHLVRAEINVKQARLRVDHRPWVLRPMPLQTYIWLEYDQPLYVGSAELKRRPFVGCLRAMRLNGVTLNLEGRANASEGTFPNCTGHCTHPRFPCFHGGRCVERYSYYTCDCDLTAFDGPYCNHDIGGFFETGTWMRYNLQSALRSAAQEFSHMLSRPVPGYEPGYIPGYDTPGYVPGYHGPGYRLPDYPRPGRPVPGYRGPVYNVTGEEVSFSFSTSSAPAVLLYVSSFVRDYMAVLIKEDGTLQLRYQLGTSPYVYQLTTRPVTDGQPHSVNITRVYRNLFIQVDYFPLTEQKFSLLVDSQLDSPKALYLGRVMETGVIDPEIQRYNTPGFSGCLSGVRFNNVAPLKTHFRTPRPMTAELAEAMRVQGELSESNCGAMPRLVSEVPPELDPWYLPPDFPYYHDDGWIAILLGFLVAFLLLGLVGMLVLFYLQNHRYKGSYHTNEPKATHDSHPGGKAPLPPSGPAQAPAPTPAPTQVPTPAPAPASGPGPRDQNLPQILEESRSE
